Experimental data reported in a protein production outcome set (Wang et al. 2014).

Assay: label from the status in PepcDB records
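Also: failed if final PepcDB status was selected cloned or expressed and not failed if soluble or beyond.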

**Q.** Which protein production does the source give for “MNRFNYIGMLAYVALSMSSCDDSFDVSSKADGVLAVSQEGFNTLQSYNVGEKYTADLWIQQGGLKSTASVVSFSVDKALLDSMNIADGTSYELLPADCYQLTKSSVDIPANERLLKGELTYDPAKIQELSGYDHLKYVLPLRATSSGMPFVSGRSVLLLGFKVSEPIVTIMNAGVEEINLAEVKELPVQIGVPFTNKWEISCRLESRQSVIDAYNTAHGTYFSMLPSDAYVTPETPILHSGVNQVTATYKLKDDILPGNYMLPVQIAEVTSDATIRADKDVYAAYSIIKEGDKLSKTDWKIVSFTTEEASGEGSNNGHAKHLIDGNIETFWHSRWQGGSDPLPYEIIIDMNHRVKIAQIELLPRGRGSNNPIKVVRFEASEDGTNWESIGQFGFTNQDAALKYYVKSSTARYIKLVIPDGVGNGTVAAIRELDVRGTVVN” here?
**A.** The protein production was “failed”.

**Q.** With “MNRGVIVTGGGHGIGKQICLDFLEAGDKVCFIDIDEKRSADFAKERPNLFYFHGDVADPLTLKKFVEYAMEKLQRIDVLVNNACRGSKGILSSLLYEEFDYILSVGLKAPYELSRLCRDELIKNKGRIINIASTRAFQSEPDSEAYASAKGGIVALTHALAMSLGPDVLVNCIAPGWINVTEQQEFTQEDCAAIPAGKVGTPKDISNMVLFLCQQDFITGETIIVDGGMSKRMIYHGDWNWFYKIDK” as the sequence, how does the protein production read?
**A.** Its protein production is “not failed”.

**Q.** For “MNRKKLQKLTDTLTKNCKHFNKFEVNCLIKLFYDLVGGVERQGLVVGLDRNAFRNILHVTFGMTDDMIMDRVFRGFDKDNDGCVNVLEWIHGLSLFLRGSLEEKMKYCFEVFDLNGDGFISKEEMFHMLKNSLLKQPSEEDPDEGIKDLVEITLKKMDHDHDGKLSFADYELAVREETLLLEAFGPCLPDPKSQMEFEAQVFKDPNEFNDM”, which protein production is on record?
**A.** The protein production was “failed”.

**Q.** With “MNRLDQLGIRINLICNVFDKWIGQQDLNYNLFTVLYTLATEGSRTQKHIGEEWSLPKQTVSGVCKTLAGQGLIEWQEGEQDRRERLLSLTEKGKVHAAPLTENAQEFSDKVFSTFGDKRTTRLFADLDALAEVMEKTISENKK” as the sequence, how does the protein production read?
**A.** Its protein production is “failed”.

**Q.** With “MNRNDITILSQQRESVLATNKVLRNTYLLLSLTFIFSALTAYVAFISGARPMNPLLMIVGVYGLMFLTQALRNSVWGLVSVFAFTGFLGYTIGPLLNYYITGFSNGPQIVATALGGTGMIFFALSGYALTTKKDFSYLGGFLFVGVMVALLAMIAGIFIQIPALQLVISAAFVLISSGLILLQTSAIIHEGETNYIMATIGLFVSIYNLFVSLLNLLSAFSGRD” as the sequence, how does the protein production read?
**A.** Its protein production is “failed”.

**Q.** For “MNRSLWTQWSIASVIVLFCAFCLYSPAHAGVDEDLVRAVEDNKTHRVRDLLTKGASPDARDLQSETALMLAARNKNPEMGGLLLEAGANPDLRNKYGETATMLACYYGQLDLVKRLYAKGAKIDHDGWNPLIYAASKGYKEIVEFLLNYGVRIDAATDNGTTALMMAVRGNHYDTVELLLKHGANALIRNEADGTALGWARKQGHTSIVQLLTRNGTAD”, which protein production is on record?
**A.** The protein production was “failed”.

**Q.** Which protein production does the source give for “MNSASTTVPTDLTNERLPSGRLLALGLQHVLVMYAGTVAVPLIVGGALKLPKDQLAFLINADLFAAGLATLIQAFGFWKFGIRMPVMMGVTFASVAPMIAIGNDPNVGLLGIYGAVIASGIFGILIAPMMGRMLGLFPPVVTGTVITLIGVSLMRVGINWAGGGQPTTRAVIDGVAKEVPNLAYGDLSNLAIAGLVLAVILLLSKYGRGLVANCAVLLGIIIGTLVAMALGKVSFEGLNEASYVAVITPLHFGIPKFELTAILSMCIVMLITLVESTGMFLALSDITGRKLSRDDLTAGLRADGLGTVIGGIFNTFPYTSFSQNVGLVTVTGVRSRYVAAAGGLILIAFGLFPKMAHVVASVPQFVLGGAGIVMFGMVAATGIRILGSCDFNRNRHNLFIVAISIGFGMIPTLSPTLFQYLPKWTDPFTHSGIVLGTIVAVALNLFFNGIQSAEEAMRNAAANSHGTE” here?
**A.** The protein production was “failed”.

**Q.** Which protein production does the source give for “MNSCILQATVVEAPQLRYTQDNQTPVAEMVVQFPGLSSKDAPARLKVVGWGAVAQELQDRCRLNDEVVLEGRLRINSLLKPDGNREKQTELTVTRVHHLTLDSATGILAQEESEVSYGRSAAASAPVKASPVVTPTAAPDVDYDDIPF” here?
**A.** The protein production was “failed”.

**Q.** For “MNSEVDTLFAQAYKLQYEGHLPQAISLYEQILAQSPKHTETLHFLGLTYAQLGDMENAILYFLQARKINPNDVGILNNLANAYKKAGQLDEAIKYYQQAIEIKPEYVQAHNNLAATYALLNNYQKALHHYVIAVNTEPDFSAAHFNLGLLLLKNQQLSAAKTQFNNVIALNPQHREAQFYLGILHLEDNLLSEAEQAFHKVLEQDHEHVQSLINLGVIALKREQNQLAVDYFTKALALDNEDIDARNNLAATFMHHDRFENALMHYDVLLKKEPDNLEYLYNSGVAQMALGHLNEATLLFDQILTLQSDHTPSLNNLAAIYLKMDMRETAREYLERALAINPDDVISRHMLNAITGATSVNTTEKYAQNLFNNYALYYDQHMQGELHYKIPHHIGRLIHQLQLLQTSHSLDLGCGTGLTGIVLREISKHLTGVDIAEKMIARAKEKNIYDLLVCSELIDFLRKDKNDYDLAVAADVLPYFGNLDDIFNSINQHLKQEGYFIFTTEISTTTPWKLESSARFSHQPEYIESLINKYQFHLIKQEKIPGRTQNKQVLEVMLYCIQKSTSCFVSN”, which protein production is on record?
**A.** Its protein production is “failed”.

**Q.** For “MNSHFLTNDLILEVLSRLPLKSVARFHCVSKRWASMFGSPYFKELFLTRSSAKPRLLFAIVQNGVWRFFSSPRLEKSSSTLVATAEFHMKLSPNNLRIYHDNTPRYFSIGYASGLIYLYGDRYEATPLICNPNTGRYTILPKCYTYRKAFSFFGFDPIDKQYKALSMIYPSGPGHSKILTFGDGDMNWKKIKYRVLHDIYSQGICINGVLYYLGDTSDWDNDHDVTSGNVLVCFDLRSESFTFIGLECGQLINYKGKLAVIFWDDVDDDDVKDDAIDEMHVWVLEDVEKKEWSKYAYTWTEDKLYRSQVSVVGMTASGEIVFSMRKYTSEQPFYVYYFNPERNNLRRVEIQGFEAFTKFGTVYTFVDHVEDLNVYNLKHFKSVHPPSVQPEYDESDSESEEDREIII”, which protein production is on record?
**A.** The protein production was “failed”.

**Q.** For “MNSIEKELDCGRSVTDQQKIEEVTRQITEHGNELRRRYPVLNYQNALGASAMAVSVTVMVVTGVLYVKGIMPAWLCILVNALSTSIIHELEHDLIHRLYFRKQPLAHNFMMLLCWLTRPGMPSPWLRRGLHFHHHKESGTATDVEAWITTSGNPWGILRLLKLMDGFLFGFVNAVCAPGWRQKMKLLARIIRLNTPFGLLYWGSWYVFLGYHLSTWLGGLAGVPPPSSPLMLQVMNMIDCVVVIVVAPNMIRQFCLYFISSNMHYYGDVAPRNALQQTQVMNHWLLWPFQLFCFNFGSTHSIHHFVVKDPFYLRQMTAPYAHEVMAKAGVRFNDFGTYKRANRFKLDTVQFQSRG”, which protein production is on record?
**A.** The protein production was “failed”.

**Q.** For “MNSLPSPHPPLSPAVPVASRAALRLAELGVFVLTALVVNMPSGLLPFGVCLLGGTLLGWRSLRAGLATQGWSLRVLTGLTAVVIAMSVLSIVLFEPSVRDVENRSRFLVLPWAALWAYALQPRQVWLWRGALAGVFAAMLVAILQVMNGAERAEGWTNAIVFADIALMLLVVAIFCRPNGQVRWLLGAAVAAVAVIVLSGSRGVWLSLLVTLGVLVWGAPWQSARMRLLAFVGGAVVCVGLVLSVPGLTEQLRIGELQSDFQRYEVGDADSSAGARIERLHVAWDTLQAHPLTGVGVGRFDDAMRELPLCAGDTWLLRCHLGHAHNDLAEWGATQGIPGLLLLIAVYGVPLWMFVRLHRRSGQRQFRGPAAAGVMIVISYALCGLTQSMFAHQVSASFYAAMVGILAGLAARQAQQHATAASPLAQSAR”, which protein production is on record?
**A.** The protein production was “failed”.

**Q.** With “MNSLSSLAAVLLMAGRSTRMGQPKALLPLGGMPLCRHAAQTLVEAGYGEVWAVLPPGETGDAVRAALQGLPLRWVTNPQPAQGLLSSFQAAGEALWAESAAPAVVFTLADMPLVRRDTHQALGTVFGAEQPAAIITRYGEVAAPPTLLRRDLLPRLHEFPPSDHGPRTLLRELGRELKKIDRPAAELLDIDTPEAWAQAQQLFAEVTPGAQDGP” as the sequence, how does the protein production read?
**A.** The protein production was “failed”.

**Q.** With “MNSNANNTPIAIGISQVFPCSYLDGQQEQLLVIQEETLDPILFERLLAIGFRRSGSAIYKPRCPRCSACQPIRVPIQEFVPSKRQKRTLAHNRDLTWRITTEHTETQYALYEKYIRERHFDGPMYPPSKAQYEQFLFCHWLPPTFIEVYDDNRLVAVAVTDTLPNSFSAIYSYFDPDEERRSLGVLLILLQCRLAKLQGKAFLYLGYQIDANRKMSYKRLYRPYQILTHQGWEYSQVCLEHHHHHH” as the sequence, how does the protein production read?
**A.** Its protein production is “failed”.

**Q.** Which protein production does the source give for “MNSNVNDRKPRLVFFQWDHQPNANAAGYLLLHMQQQVKCLSTHFDVVVINRDCDYAEICDRYEPDLTLFESGYRSHGSRRIKITNTNTHIAVPKLGLHNADAWCDRRAGFLSDMEQWGIEAYFAIATMTPEYMPAVKENLFVWPNFIDPDVYHDYGQQKVIPAMLTGQAYGLYPWRQTVFPMIRDRYPCLVSPQHAYESKLASQLLSGEAYARALNASLVVPTCGTMGGEVVRKHFEIPGAKACLVTERTPAVEAAGFVDMENCVFVDGHNVVERLDYLFAHPDEIRHITTAGYSLIHSRHTLSHRPQIYQWFMLSKGLQFGEKIIQSGPFGDLTKVQRISRQESVHIVGEASDRALLKQGDLLLEQGRVEEAKQCYARCLDYVSYLPEAKFRLAICALQQGDADRAYGLMVGLVKVTMTEYEALNPDPVEWAYFLLALICRGQFERARRLQDFYPSLSHDEFRRARLVIALLGGSGDAAVSGRYGRDRKSIHQIPDRSDSEWLAWFSDILERCQQPDLANVLRHAPVGRSGVGEKVTFLHFKRDAGWRLRLYSGVDGLMVGLHLNGLRPNVPPLPEFRYFSHLARRLVPHSQRGPLRRIRTALSRLPVGTGN” here?
**A.** The protein production was “failed”.

**Q.** Which protein production does the source give for “MNSPFAAETLLFERSRPRPEALRVIYGFPNTYSVGITSLGYQLVWAQLASRADVAVSRLFTDVQEPLPRDPELVGFSFSWELDYGNLLVLLEQLGIPIWQRDRHDCHPLVFGGGPVLTANPEPFADFFDVILLGDAEPLLDPFLTTMAQVRTAARSQRLEALAHVPGIYVPSLYHVSYSHPTGPIQRIEPIKASVPPTVTKQVHRGHTLAASTVVTPLAAWENIYMVEVVRSCPELCRFCLASYLTLPFRTPSLETLIPAIERGLAVTDRLGLLGASITQHPEFPALIEHLGQPQFDHVRVSLASVRTNTVTESLAQLLSQRGSQSLTIAIETGSERLRQVINKKLETEEILAAASHAQAGGLKGLKFYGMVGLPTETDADVAATVDLFCQLKKTAPRLRLTLGCSTFVPKAHTPFQWWGVQPVAEKRLKFLKKELAKLGIEFRPESYNDSLIQALISRGDRRLAPLLEQVRHYGTSLGSYRRAFKERQGQLPDFEAYVNANWPEETVLPWQHLQSGLPTKTLENHLKRAIALEHHHHHH” here?
**A.** Its protein production is “failed”.

**Q.** Which protein production does the source give for “MNSPKNSLYEEKSGHYYNAVNPNLLKHIKKEWKEVLDIGCSSGALGAAIKENGTRVSGIEAFPEAAEQAKEKLDHVVLGDIETMDMPYEEEQFDCVIFGDVLEHLFDPWAVIEKVKPYIKQNGVILASIPNVSHISVLAPLLAGNWTYTEYGLLDKTHIRFFTFNEMLRMFLKAGYSISKVDRVYVDHKMYEPLIEELYGICKKYRLGSGFMAETVVFQYIIEAEKSQL” here?
**A.** Its protein production is “not failed”.

**Q.** For “MNSPTSRPLRRDPLHNALVTTNVLVVLDQLEVAAEPTRRRLVQLLTSGEQTVNNLAAHFPASRSAISQHLRVLTEAGLVTPRKDGRFRYYRLDPQGLAQLRALFDSFWIDELDRLVADATEEAASKGDS”, which protein production is on record?
**A.** The protein production was “not failed”.

**Q.** For “MNSTAIVLLNWRSAKDTVKCVESLIAAEIRQCDIIIVDNDSQDESINVIKEHFTDVRVIESGKNGGFAYGCNVGIRAALSSGYNYVWLLNNDTIVDKTTLPNMIEEIKRNKKAIVGSIIRDIEFPWSVQAVGGGTINFLTGTGRHIKTFDDVDKLDYLLGASILVSREALESIGLLNEDFFMYWEDTEFCIRARRKGYFLKVAKQSNVYHKEGGSVNKESYAQTRMIFRSMRKFFLKESPFPLLPIAIRQLGKTFVSLLRREFRRIPYIWL”, which protein production is on record?
**A.** The protein production was “failed”.

**Q.** For “MNSTRGVTLIQLSSALAYSHALMNQVVNPGDHVIDATVGNGHDTVYLAKLVGTTGHVDGFDIQSAAIEATTTALDKAALTHQVTLWQTGHEHIADKIAADQPIKCAVFNLGYLPGGDKQIITKPTTTLTAIKAIQERLVTNGLIILLVYAGHPGGATEAQAVLDYVTNLDQHQFQVLQYQFINQVHVPPYLLAIQKR”, which protein production is on record?
**A.** The protein production was “failed”.
